Target: SUSD5 protein, expressed on HEK293 cells (ZsGreen1-SUSD5 vector) (Homo sapiens, UniProt O60279)
Test: flow cytometry on cells

SUSD5 protein, expressed on HEK293 cells (ZsGreen1-SUSD5 vector), sequence (O60279 36-629): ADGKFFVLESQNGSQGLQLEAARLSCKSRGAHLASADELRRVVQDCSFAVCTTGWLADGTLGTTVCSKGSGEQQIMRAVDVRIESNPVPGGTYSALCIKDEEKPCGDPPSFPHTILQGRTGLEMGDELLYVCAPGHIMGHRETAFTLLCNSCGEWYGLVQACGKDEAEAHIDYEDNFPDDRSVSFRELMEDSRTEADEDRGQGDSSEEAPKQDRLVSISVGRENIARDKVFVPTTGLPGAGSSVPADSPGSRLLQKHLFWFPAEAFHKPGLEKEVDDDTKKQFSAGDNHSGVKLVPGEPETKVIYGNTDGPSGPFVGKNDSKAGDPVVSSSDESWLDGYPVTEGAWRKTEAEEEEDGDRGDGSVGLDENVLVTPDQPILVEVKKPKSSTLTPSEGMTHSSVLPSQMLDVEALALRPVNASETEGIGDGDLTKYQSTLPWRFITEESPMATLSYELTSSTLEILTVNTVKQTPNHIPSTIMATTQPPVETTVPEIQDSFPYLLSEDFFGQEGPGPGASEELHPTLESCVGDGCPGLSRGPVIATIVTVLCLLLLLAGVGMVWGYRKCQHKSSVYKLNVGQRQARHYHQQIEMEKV

B1: h1-3F1, stabilized humanized anti-CD169 mAb of clone #3F1 (variant 6 of h0-3F1) (antibody, V domains shown)
VH: QVQLVQSGAEVKKPGASVKVSCKASGYSFTTYYMHWVRQAPGQRLEWMGWISAYSGATKYSQKFQGRVTITRDTSASTAYMELSSLRSEDTAVYYCARKGGWIPFDYWGQGTTVTVSS
VL: not shown
  binding result: binds

From publication PMC12327374 (Biomedicine & pharmacotherapy = Biomedecine & …, 2024)
